Reference: US20090252683A1 (Amgen, published 2009)
Values belong to the binder of their own block, whether it stands above or below them.

How the values were obtained:
[1] = molecular target: T1, human CD3 antigen on HPB-ALL cells or human T cells (human, UniProt P07766 22-126; P09693 23-111; P04234 22-103); test: FACS, FITC-conjugated antibody on HPB-ALL cells
T1 construct: natural CD3 complex on cells (HPB-ALL, human PBMC T cells); also called human CD3 complex
Method: Binding of an Ig comprising SEQ ID NOs. 2 and 4, an Ig comprising SEQ ID NOs. 6 and 8 and mAb FN18 to the cynomolgus CD3 antigen on cynomolgus PBMC and to the human CD3 antigen on HPB-ALL cells (DSMZ No. ACC 483) was tested using an FACS assay. For that purpose, 2.5×10⁵ cells were incubated with the FITC-conjugated Ig comprising SEQ ID NOs. 6 and 8 and the FITC-conjugated Ig comprising SEQ ID NOs. 2 and 4 diluted 1:25 in 50 μl PBS with 2% FCS, respectively. The incubation with the FITC-conjugated mAb FN18 antibody (Biosource International) was performed in 50 μl of undiluted antibody. The samples were measured on a FACSscan (BD biosciences, Heidelberg, FRG). Strong antigen binding on human as well as on cynomolgus cells was detected for the Ig comprising SEQ ID NOs. 2 and 4. For the Ig comprising SEQ ID NOs. 6 and 8, strong binding to human cells but weaker binding to cynomolgus cells was observed. For FN18, strong binding to cynomolgus cells could be observed whereas no binding to human cells could be detected.

[2] = molecular target: T2, human EpCAM antigen on Kato III cells or human EpCAM transfected CHO cells (human, UniProt P16422 24-265); test: cell-based or functional assay
T2 sequence: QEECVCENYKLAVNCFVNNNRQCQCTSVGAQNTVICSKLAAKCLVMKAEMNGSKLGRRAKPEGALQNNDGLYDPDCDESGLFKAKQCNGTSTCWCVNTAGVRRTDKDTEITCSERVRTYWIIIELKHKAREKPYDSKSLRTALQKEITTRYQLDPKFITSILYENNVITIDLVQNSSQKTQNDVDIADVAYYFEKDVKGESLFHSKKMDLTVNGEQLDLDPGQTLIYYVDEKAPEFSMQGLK

[3] = molecular target: cynomolgus CD3 antigen on cynomolgus PBMC / macaque T cells (Macaca fascicularis (cynomolgus), UniProt Q95LI5 22-117; Q95LI7 23-110; Q95LI8 22-103); test: cell-based or functional assay
[4] = molecular target: T3, cynomolgus EpCAM antigen on transfected CHO cells (cynomolgus, UniProt Q1WER1 24-265 (rhesus entry)); test: FACS on cynomolgus EpCAM transfected CHO cells, anti-His detection
T3 construct: 48 holds the extracellular portion
T3 sequence: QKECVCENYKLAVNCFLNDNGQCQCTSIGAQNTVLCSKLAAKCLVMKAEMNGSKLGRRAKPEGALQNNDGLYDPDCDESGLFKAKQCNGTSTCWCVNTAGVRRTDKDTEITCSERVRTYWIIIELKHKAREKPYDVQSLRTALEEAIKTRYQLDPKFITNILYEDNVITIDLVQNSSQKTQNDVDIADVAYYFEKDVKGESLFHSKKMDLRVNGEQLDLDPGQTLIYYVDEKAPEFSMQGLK
Description: FIG. 8: FACS assay for binding of 2G8LH×SEQ ID NO. 12, 2G8LH×SEQ ID NO. 10, 2G8LH×SEQ ID NO. 16, 2G8LH×SEQ ID NO. 14, 2G8HL×SEQ ID NO. 12, 2G8HL×SEQ ID NO. 10, 2G8HL×SEQ ID NO. 16 and 2G8HL×SEQ ID NO. 14 on Kato III (FIG. 8A) cells or cynomolgus EpCAM transfected CHO cells (FIG. 8B) and HPB-ALL cells. Antigen binding was clearly detectable for the anti EpCAM specificities as well as for the anti CD3 specificities. As a negative control for binding to cynomolgus EpCAM, the 5-10LH×SEQ ID NO.
Binding of the bifunctional constructs from cell culture supernatants or binding of purified bifunctional constructs to the human EpCAM antigen on Kato III cells or cynomolgus EpCAM transfected CHO cells and to the CD3 antigen on HPB-ALL cells was tested using an FACS assay. For that purpose 2.5×10⁵ cells were incubated with 50 μl supernatant or with 5 μg/ml of the purified constructs in 50 μl PBS with 2% FCS. The binding of the constructs was detected with an anti-His antibody (Penta-His Antibody, BSA free, obtained from Qiagen GmbH, Hilden, FRG) at 2 μg/ml in 50 μl PBS with 2% FCS. […] The samples were measured on a FACSscan (BD biosciences, Heidelberg, FRG). Antigen binding was clearly detectable for the anti EpCAM specificities as well as for the anti CD3 specificities (see FIG. 8). As a negative control for binding to cynomolgus EpCAM, the 5-10LH×SEQ ID NO. […] The 5-10LH part only binds to human EpCAM.

[5] = molecular target: T3, cynomolgus EpCAM antigen on transfected …; test: FACS on cynomolgus EpCAM transfected CHO cells against untransfected cells
Method: FIG. 7: FACS assay for the detection of the cynomolgus EpCAM antigen on transfected CHO cells. Supernatants of three different anti human EpCAM hybridomas (M79, 3B10, 2G8) were tested for binding.
To generate a cell line positive for cynomolgus EpCAM, a clone of the aforementioned coding sequence of the cynomolgus EpCAM antigen subcloned into pEFDHFR with a verified nucleotide sequence was transfected into DHFR deficient CHO cells for eukaryotic expression of the construct as described in Kaufmann R. J. (1990) Methods Enzymol. 185, 537-566). Gene amplification of the construct was induced by increasing concentrations of MTX to a final concentration of up to 500nM MTX. The transfected cells were then tested for expression of cynomolgus EpCAM using an FACS assay. For that purpose, a number of 2.5×10⁵ cells was incubated with 50 μl supernatant three different mouse anti human EpCAM hybridomas (M79—Fogler et al., Cancer Res. 48 (1988); p. 6303-8; 3B10—Passlick et al. Int. J. Cancer 87 (2000), p. 548-552; 2G8—Balzar et al., J. Mol. Med. 77 (1999), p. 699-712). […] The samples were measured on a FACSscan (BD biosciences, Heidelberg, FRG). The anti EpCAM antibody 2G8 was recognized as cross-species specific and the expression of cynomolgus EpCAM was confirmed (see FIG. 7).

[6] = molecular target: T2, human EpCAM antigen on Kato III cells …; test: FACS, Kato III cells or human EpCAM transfected CHO cells, anti-His detection
Method: FIG. 3: FACS assay for binding of 5-10LH×SEQ ID NO. 12, 5-10LH×SEQ ID NO. 10, 5-10LH×SEQ ID NO. 16 and 5-10LH×SEQ ID NO. 14 to human Kato III cells expressing EpCAM or human EpCAM transfected CHO cells and to HPB-ALL cells. Cells bound by the respective constructs (depicted as non-filled curves) are shown in comparison to cells incubated only with the detection antibodies (depicted as filled curves). Antigen binding of all bispecific constructs was clearly detectable for the anti human EpCAM specificity as well as for the anti CD3 specificities on the HPB-ALL cell line positive for human CD3.
Binding of the bifunctional constructs to the EpCAM antigen on human Kato III cells expressing EpCAM (ATCC No. HTB-103) or on human EpCAM transfected CHO cells and to the human CD3 antigen on HPB-ALL cells was tested using an FACS assay. For that purpose 2.5×10⁵ cells were incubated with 50 μl of cell culture supernatant containing the construct. The binding of the construct was detected with an anti-His antibody (Penta-His Antibody, BSA free, obtained from Qiagen GmbH, Hilden, FRG) at 2 μg/ml in 50 μl PBS with 2% FCS. […] The samples were measured on a FACSscan (BD biosciences, Heidelberg, FRG). Antigen binding was clearly detectable for the anti human EpCAM specificity as well as for the anti CD3 specificities on the cell line positive for human CD3 (see FIG. 3).

Sequence of cynomolgus CD3 antigen on cynomolgus PBMC / macaque T cells (Q95LI5 22-117, chain 1 of 3): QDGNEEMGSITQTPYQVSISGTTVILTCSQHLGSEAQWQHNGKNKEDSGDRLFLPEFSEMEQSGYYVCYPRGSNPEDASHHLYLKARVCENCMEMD
Sequence of cynomolgus CD3 antigen on cynomolgus PBMC / macaque T cells (Q95LI7 23-110, chain 2 of 3): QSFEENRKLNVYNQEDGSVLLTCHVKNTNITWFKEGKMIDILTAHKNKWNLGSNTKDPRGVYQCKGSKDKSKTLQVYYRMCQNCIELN
Sequence of cynomolgus CD3 antigen on cynomolgus PBMC / macaque T cells (Q95LI8 22-103, chain 3 of 3): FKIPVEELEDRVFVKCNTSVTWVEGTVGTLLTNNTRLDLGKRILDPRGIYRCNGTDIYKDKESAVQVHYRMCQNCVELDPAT
T1 sequence (P07766 22-126 limits assumed, chain 1 of 3): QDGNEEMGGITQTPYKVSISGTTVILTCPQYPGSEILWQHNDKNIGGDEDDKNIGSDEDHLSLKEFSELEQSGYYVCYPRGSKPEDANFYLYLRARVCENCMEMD
T1 sequence (P09693 23-111 limits assumed, chain 2 of 3): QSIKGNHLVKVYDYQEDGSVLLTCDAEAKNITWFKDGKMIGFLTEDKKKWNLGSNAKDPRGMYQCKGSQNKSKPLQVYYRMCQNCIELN
T1 sequence (P04234 22-103 limits assumed, chain 3 of 3): as the sequence (Q95LI8 22-103, chain 3 of 3) above, with V5I, K15N, V20I, T32S, N33D, N34I, A64T, N74S counted along it

binding result [5]: binds
B3: anti EpCAM antibody 2G8 (antibody, V domains shown)
VH: EVQLQQSGAELVRSGASVKLSCTASGFNIKDYYLHWVKQRPEQGLEWIAWIDLENGDIKYAPKFQGKATITADTSSNTAYLQLSSLTSEDTAVYYCNPYYYGSNYDYAMDYWGQGTSVTVSS
VL: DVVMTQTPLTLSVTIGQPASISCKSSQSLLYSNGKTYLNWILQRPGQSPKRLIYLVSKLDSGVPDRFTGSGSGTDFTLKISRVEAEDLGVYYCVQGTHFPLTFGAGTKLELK
notes: mouse hybridoma supernatant; also called 2G8 hybridoma

binding result [6]: binds
B4: 5-10LH×SEQ ID NO. 16 bispecific single chain antibody (bispecific antibody)
chain: ELVMTQSPSSLTVTAGEKVTMSCKSSQSLLNSGNQKNYLTWYQQKPGQPPKLLIYWASTRESGVPDRFTGSGSGTDFTLTISSVQAEDLAVYYCQNDYSYPLTFGAGTKLEIKGGGGSGGGGSGGGGSEVQLLEQSGAELVRPGTSVKISCKASGYAFTNYWLGWVKQRPGHGLEWIGDIFPGSGNIHYNEKFKGKATLTADKSSSTAYMQLSSLTFEDSAVYFCARLRNWDEPMDYWGQGTTVTVSSGGGGSQVVLTQSPAIMSAFPGEKVTMTCSASSSVSYMNWYQQKSGTSPKRWIYDSSKLASGVPARFSGSGSGTSYSLTISSMETEDAATYYCQQWSRNPPTFGGGTKLQITGGGGSGGGGSGGGGSQVQLQQSGAELARPGASVKMSCKASGYTFTRSTMHWVKQRPGQGLEWIGYINPSSAYTNYNQKFKDKATLTADKSSSTAYMQLSSLTSEDSAVYYCASPQVHYDYNGFPYWGQGTLVTVSAHHHHHH

Further lines, the binder ahead of its results:

B1: monoclonal antibody (mAb) FN-18 (antibody, V domains shown)
VH: QVQLQQSEAELARPGASVKMSCKASGYTFTDYTIHWLKQRPGQGLDWIGYFNPSSESTEYNRKFKDRTILTADRSSTTAYMQLSSLTSEDSAVYYCSRKGEKLLGNRYWYFDVWGAGTSVTVSS
VL: DIVMSQSPSSLAVSVGEKVTMSCKSSQSLLYSSNQKNYLAWYQQKPGQSPKLLINWASTRESGVPDRFTGSGSRTDFTLTISSVKAEDLAVYFCQQFYSYPPTFGGGTKLEIK
notes: tested as bought FITC-conjugated antibody (Biosource International)
binding result [1]: no binding (tested: 50 µl of undiluted antibody)

B2: 5-10LH×SEQ ID NO. 10 bispecific single chain antibody (bispecific antibody)
chain: ELVMTQSPSSLTVTAGEKVTMSCKSSQSLLNSGNQKNYLTWYQQKPGQPPKLLIYWASTRESGVPDRFTGSGSGTDFTLTISSVQAEDLAVYYCQNDYSYPLTFGAGTKLEIKGGGGSGGGGSGGGGSEVQLLEQSGAELVRPGTSVKISCKASGYAFTNYWLGWVKQRPGHGLEWIGDIFPGSGNIHYNEKFKGKATLTADKSSSTAYMQLSSLTFEDSAVYFCARLRNWDEPMDYWGQGTTVTVSSGGGGSEVKLLESGGGLVQPKGSLKLSCAASGFTFNTYAMNWVRQAPGKGLEWVARIRSKYNNYATYYADSVKDRFTISRDDSQSILYLQMNNLKTEDTAMYYCVRHGNFGNSYVSWFAYWGQGTLVTVSAGGGGSGGGGSGGGGSQAVVTQESALTTSPGETVTLTCRSSTGAVTTSNYANWVQEKPDHLFTGLIGGTNKRAPGVPARFSGSLIGDKAALTITGAQTEDEAIYFCALWYSNLWVFGGGTKLTVLHHHHHH
EC50 (half maximal killing), FACS-based cytotoxicity, Kato III target cells, human PBMC effector cells [2]: 0.0058 ng/mL
EC50 (half maximal killing), FACS-based cytotoxicity, Kato III target cells, cynomolgus PBMC effector cells [3]: 0.052 ng/mL
binding result [4]: no binding (tested: 50 µl supernatant or 5 µg/ml)
